Laboratory results: the supplement of paper PMC9732359
± gives the uncertainty stated by the source.

Assay: protein stability index of a GFP-peptide fusion (yeast GPS) (PSI 1-4); higher = more stable; sorted into four equal gates, so the index is relative within each strain
How it was run: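 Each library plasmid carries Cherry plus GFP with a tiled 17-residue yeast protein peptide fused downstream, and the pooled library was carried in yeast. Mid-log cultures in leucine-free medium were sorted into four equal gates by GFP/Cherry ratio. Reads from Illumina sequencing of PCR-amplified plasmids from each gate were assigned to strains by barcodes. Per peptide, the protein stability index was computed as the summed products of gate read frequency and gate number.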

Row | Sequence | protein stability index (doa10∆) | protein stability index (pdr5∆) | protein stability index (san1∆) | protein stability index (ubr1∆)
1 | WAEHLSDEVKRRFYKNW [RPL3] | 3.31 ± 0.2 | 2.9 ± 0.25 | 3.34 ± 0.14 | 3.37 ± 0.17
2 | WCAGAGTAADTEAVTQL [PUP1] | 3.16 ± 0.24 | 2.94 ± 0.23 | 2.78 ± 0.21 | –
3 | WCQEAFPSSETTSLNPI [BRR2] | 3.23 ± 0.11 | 3.33 ± 0.097 | 3.48 ± 0.11 | 3.23 ± 0.17
4 | WEISNPDFLSKYSAITS [NUT1] | 1.54 ± 0.045 | 2.06 ± 0.044 | 1.51 ± 0.073 | 1.59 ± 0.041
5 | WFCPCHGSHYDISGRIR [RIP1] | – | 2.31 ± 0.18 | 2.64 ± 0.25 | –
6 | WFLDHNYIENMNEMCKK [RPN8] | 3.54 ± 0.18 | 3.26 ± 0.12 | 2.93 ± 0.077 | 3.2 ± 0.083
7 | WGEQKKAMSSRAGVSQV [RPB2] | 3.27 ± 0.12 | 3.17 ± 0.099 | 3.25 ± 0.071 | 3.32 ± 0.05
8 | WGIPLIKELRSKGYPIQ [FAS1] | 2.38 ± 0.16 | 2.75 ± 0.091 | 1.69 ± 0.2 | 1.85 ± 0.071
9 | WGMEPLEDYVPHQSPDA [RPB2] | 2.85 ± 0.11 | 3.3 ± 0.13 | 2.98 ± 0.081 | 2.98 ± 0.076
10 | WGYQMVWAPTQKCFKLT [POP1] | 2.59 ± 0.069 | 2.62 ± 0.068 | 2.57 ± 0.069 | 2.66 ± 0.067
11 | WHIEETGEWFSSYEEFL [ITC1] | 2.31 ± 0.072 | 2.63 ± 0.077 | 2.59 ± 0.066 | 2.53 ± 0.063
12 | WKFKSLIEILRLRALQL [RRI2] | 1.45 ± 0.093 | 1.21 ± 0.075 | 1.14 ± 0.13 | 1.08 ± 0.075
13 | WKIPQNDIPQTESPLKT [SSN2] | 2.71 ± 0.082 | 2.23 ± 0.058 | 2.13 ± 0.08 | 2.38 ± 0.039
14 | WLAAATATGIKVFSLDP [ASC1] | 2.58 ± 0.049 | 2.69 ± 0.045 | 2.81 ± 0.036 | 2.43 ± 0.029
15 | WLLHNGFSTGIGDTIAD [RPO21] | 3.11 ± 0.16 | 3.24 ± 0.17 | 3.26 ± 0.093 | 3.06 ± 0.15
16 | WLYVYETPNQDATYDSA [RPN6] | 2.62 ± 0.075 | 2.75 ± 0.067 | 2.67 ± 0.068 | 2.49 ± 0.055
17 | WNLNATKPNVLNDPSLK [SIN4] | 3 ± 0.088 | 2.94 ± 0.071 | 3 ± 0.054 | 3.26 ± 0.04
18 | WNSLMYALQSVKLPRAF [RRP43] | 1.31 ± 0.066 | 1.34 ± 0.083 | 1.2 ± 0.12 | 1.29 ± 0.051
19 | WNWAKQSLLSLYFEIIH [FAS2] | 1.7 ± 0.06 | 1.46 ± 0.057 | 1.76 ± 0.15 | 1.4 ± 0.072
20 | WRSKRIEQLFPVRPVRV [RPC53] | 3.25 ± 0.14 | 3.11 ± 0.087 | 3.21 ± 0.071 | 3.08 ± 0.069
21 | WSFEEVEVKDASLVDYV [RPS5] | 1.32 ± 0.089 | 1.14 ± 0.06 | 1.22 ± 0.14 | 1.17 ± 0.056
22 | WSSLLNEGLVEYIDAEE [RPB2] | 2.84 ± 0.21 | 3.44 ± 0.17 | – | 2.97 ± 0.16
23 | WVNMLLISSSGPIKTPV [FAS2] | 1.87 ± 0.059 | 1.32 ± 0.051 | 1.23 ± 0.082 | 1.53 ± 0.047
24 | WVTEVLGNDIPHDLIIG [BRR2] | 2.17 ± 0.042 | 2.95 ± 0.056 | 2.29 ± 0.063 | 2.89 ± 0.046
25 | YALQSVKLPRAFIDERA [RRP43] | – | 1.33 ± 0.17 | 1.3 ± 0.24 | 1.33 ± 0.075
26 | YASKAVPHYNRLDSYKV [RPL25] | 2.11 ± 0.14 | 2.7 ± 0.1 | 2.34 ± 0.12 | 1.47 ± 0.11
27 | YDDEQNTSAQHVESDKI [IRR1] | 3.25 ± 0.094 | 3.04 ± 0.053 | 3.06 ± 0.065 | 3.27 ± 0.057

Row | Sequence | protein stability index (doa10∆) | protein stability index (pdr5∆) | protein stability index (san1∆) | protein stability index (ubr1∆)
28 | YDEVKKHWGGGILGNKA [RPL8A] | 3.16 ± 0.11 | 3.4 ± 0.089 | 3.44 ± 0.06 | 3.23 ± 0.061
29 | YDLVDNKGAKAEDVALN [NAS6] | 2.8 ± 0.14 | 3.39 ± 0.27 | 2.87 ± 0.12 | 3.07 ± 0.071
30 | YDNIDIQRGRILPTDGS [RPB7] | 3.05 ± 0.28 | 3.06 ± 0.18 | – | 2.94 ± 0.24
31 | YDSRGVGEMKLLKKKDD [YLR335W/NUP2] | 2.51 ± 0.098 | 2.64 ± 0.17 | 2.52 ± 0.1 | 2.6 ± 0.17
32 | YDSRPLEEDSKKVNGTS [PRP8] | 2.99 ± 0.23 | 3.53 ± 0.17 | 3.21 ± 0.098 | 2.94 ± 0.11
33 | YEAGASHGNPVVDFLKR [FAS1] | 3.17 ± 0.09 | 3.13 ± 0.099 | 3.35 ± 0.07 | 3.25 ± 0.044
34 | YEDEELSRAEYDSDSDS [LIN1] | 3.19 ± 0.1 | 3.33 ± 0.087 | 3.08 ± 0.057 | 3.23 ± 0.055
35 | YEKNFEATLESKLKEEE [ESC2] | 3.09 ± 0.12 | 3.13 ± 0.17 | 3.03 ± 0.071 | 3.18 ± 0.13
36 | YENIPIYATFLNESDCL [YDL116W/NUP84] | 2.16 ± 0.098 | 2.54 ± 0.15 | 2.15 ± 0.15 | 2.62 ± 0.1
37 | YFLVLSPYGNLQNDLIH [RPN5] | 1.92 ± 0.091 | 2.42 ± 0.1 | 2.64 ± 0.089 | 2.67 ± 0.14
38 | YFSVTTARRNVSGDAAA [SWI3] | 1.9 ± 0.059 | 2.23 ± 0.063 | 2.33 ± 0.08 | 1.88 ± 0.047
39 | YGEYPPTKLLVSEVAKI [PRE8] | 2.53 ± 0.084 | 2.81 ± 0.13 | 2.67 ± 0.12 | 2.93 ± 0.078
40 | YGFEDESAPITAEDSWA [RPB2] | 3.06 ± 0.058 | 3.16 ± 0.055 | 3.35 ± 0.042 | 3.17 ± 0.053
41 | YGFKQEIFDVTSNGLKK [FAS1] | 2.98 ± 0.12 | 3.3 ± 0.083 | 2.61 ± 0.085 | 2.89 ± 0.047
42 | YGKVYKAKRQINSGTNS [SSN3] | 2.23 ± 0.066 | 2.04 ± 0.058 | 2.49 ± 0.094 | 2.68 ± 0.053
43 | YGQRAVLKFAAHTGATP [RPS0B] | 2.27 ± 0.055 | 2.88 ± 0.039 | 2.66 ± 0.046 | 2.66 ± 0.041
44 | YGTENKDGEDIIFNYVP [CSL4] | 3.3 ± 0.14 | 3.21 ± 0.1 | 2.92 ± 0.085 | 3.12 ± 0.065
45 | YGYPSYSTIRQLVYKRG [RPL7A] | 1.27 ± 0.061 | 1.52 ± 0.046 | 1.25 ± 0.12 | 1.41 ± 0.047
46 | YGYWFDCRMGNFYIQYD [AAR2] | 2.51 ± 0.048 | 2.08 ± 0.048 | 1.93 ± 0.081 | 2.49 ± 0.034
47 | YHFPIFNKYADPTLTTT [RPN4] | 2.05 ± 0.037 | 2.22 ± 0.048 | 2.24 ± 0.048 | 2.3 ± 0.036
48 | YHGLYTNYEMSYWQKSY [LIN1] | 1.75 ± 0.046 | 2.08 ± 0.038 | 2.11 ± 0.055 | 2.17 ± 0.041
49 | YIDIRTNNVLRKLGLLG [MTW1] | 1.49 ± 0.053 | 1.76 ± 0.069 | 1.64 ± 0.15 | 1.5 ± 0.056
50 | YIDYSSKRYIPSVNDFV [RRP40] | 2.51 ± 0.048 | 2.83 ± 0.051 | 2.42 ± 0.1 | 2.6 ± 0.078
51 | YIEDGRNPDIYTREFVE [NUT2] | 3.39 ± 0.066 | 3.38 ± 0.054 | 3.13 ± 0.044 | 3.33 ± 0.04
52 | YIFCISRTIGMVVNGPI [SCL1] | 1.45 ± 0.038 | 1.54 ± 0.047 | 1.58 ± 0.082 | 1.56 ± 0.034
53 | YIIQGSNTNDNISIITL [RGR1] | 2.77 ± 0.075 | 2.29 ± 0.083 | 2.19 ± 0.15 | 2.22 ± 0.063
54 | YIKNILEAPVKSIENPT [YLR335W/NUP2] | 2.38 ± 0.061 | 2.33 ± 0.063 | 2.19 ± 0.084 | 2.13 ± 0.057
